Test results taken from patent US20220125919A1.

Assays:
[1] = molecular target: EBV LMP2A epitope … presented by HLA-A*0201 (human); test: cell-based or functional assay
[2] = molecular target: HCMV pp65 epitope … presented by HLA-A*0201 (human); test: cell-based or functional assay

For “TCR that recognizes peptide … presented by A*0201 (PDB #3REV)”, the luciferase induction relative to uninfected controls, short cassette design 9AA [1] was 12, the luciferase induction relative to uninfected controls, short cassette design 17AA [1] was 10.3 and the luciferase induction relative to uninfected controls, short cassette design 25AA [1] was 14.6. For the same substance, the luciferase induction relative to uninfected controls, short cassette design DPP [1] was 1.1 and the luciferase induction relative to uninfected controls, short cassette design RR [1] was 8.5.

“TCR that recognizes peptide … presented by A*0201 (PDB #5D2N)” was tested, and the luciferase induction relative to uninfected controls, short cassette design 9AA [2] was 33.6, the luciferase induction relative to uninfected controls, short cassette design 17AA [2] was 42.8 and the luciferase induction relative to uninfected controls, short cassette design 25AA [2] was 42.3. It also gave a luciferase induction relative to uninfected controls, short cassette design DPP [2] of 0.9, a luciferase induction relative to uninfected controls, short cassette design RR [2] of 21.7 and a luciferase induction, in vitro T cell activation assay, short cassette design AAY [2] of 24.5. For the same substance, the luciferase induction, in vitro T cell activation assay, targeting-sequence short cassette design A [2] was 32.5, the luciferase induction, in vitro T cell activation assay, targeting-sequence short cassette design B [2] was 31.8 and the luciferase induction, in vitro T cell activation assay, targeting-sequence short cassette design C [2] was 29.1. For the same substance, the luciferase induction, in vitro T cell activation assay, targeting-sequence short cassette design D [2] was 29.1, the luciferase induction, in vitro T cell activation assay, targeting-sequence short cassette design E [2] was 28.4 and the luciferase induction, in vitro T cell activation assay, targeting-sequence short cassette design F [2] was 20.4. For the same substance, the luciferase induction, in vitro T cell activation assay, targeting-sequence short cassette design G [2] was 35, the luciferase induction, in vitro T cell activation assay, targeting-sequence short cassette design H [2] was 30.3 and the luciferase induction, in vitro T cell activation assay, targeting-sequence short cassette design I [2] was 22.5. For the same substance, the luciferase induction, in vitro T cell activation assay, targeting-sequence short cassette design J [2] was 38.1.
